Test system: MS2 coat protein
Test: apparent KD of MS2 coat protein; designed switch direction (-1 OFF switch, 1 ON switch): -1; higher = weaker reporter binding
Outline: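 Three titration conditions were used: no input, 200 uM small-molecule ligand, and an oligonucleotide input. In each, SNAP-549-labelled MS2 coat protein was raised from 0.7 or 1.5 nM, doubling, to 3 µM over designed RNA switches transcribed on Illumina chips by stalled E. coli RNA polymerase. Curve fits of normalised cluster fluorescence gave values whose per-design median over clusters is the apparent KD.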

[1] = input ligand: microRNA oligo, concentration not stated
[2] = Eterna round: R95, input ligand: microRNA oligo, concentration not stated

Sequence	apparent KD of MS2 coat protein (input ligand: FMN 200 uM) [nM]	apparent KD of MS2 coat protein [1] [nM]	apparent KD of MS2 coat protein (input ligand: none) [nM]	apparent KD of MS2 coat protein (Eterna round: R95, input ligand: FMN 200 uM) [nM]	apparent KD of MS2 coat protein [2] [nM]	apparent KD of MS2 coat protein (Eterna round: R95, input ligand: none) [nM]
GCAGCAUAGAUAACAUACUGUUACAUGAGGAUCACCCAUGUACAGGAUAUGGUCUGGAUUACAGGCCAGAAGGGUACAAGCUGC [Eli exng3 - 021] (Eterna round: R96, puzzle: Exclusion NG 3)	10.8	8.63	12.1			
GCAGCAUAUGUAGGAUAUCUGCACGUGUAGUGCAGAGAAGGACAUGAGGAUCACCCAUGUAAUUAAGAUCAAUUAUUAAGCUGC [ENG1/4-A3] (Eterna round: R96, puzzle: Exclusion NG 1)	37.7	17.3	22.2			
GCAGCGUAUGUAGGAUAUCGGUCAGUUUCUGAUCGAGAAGGACAUGAGGAUCACCCAUGUAAAUUACCGUCUUUGACGGGCUGC [JL ENG1 3.68] (Eterna round: R96, puzzle: Exclusion NG 1)	20.5	14.1	18.1			
GCAGCUAACACAGAUAUGUGCACAUGAGGAUCACCCAUGUCACAGGAUAUGGACUGGAUUACAGUCCAGAAGGGUGAAUGCUGC [Zipper Style 6] (Eterna round: R96, puzzle: Exclusion NG 3)	10.2	7.97	14			
GCAGCUAAUCGAGGAUAUCAGCACGUGUAGUGCUGAGAAGGCGACAUGAGGAUCACCCAUGUGAUCAAUUAAUAUUAAUGCUGC [ENG1/11-A3] (Eterna round: R96, puzzle: Exclusion NG 1)	893	308	414			
GCAGCUAAUGCAGGAUAUCAGCACGUGUAGUGCUGAGAAGGGCACAUGAGGAUCACCCAUGUGAUCAAUUAAUAUUAAUGCUGC [ENG1/11-B3] (Eterna round: R96, puzzle: Exclusion NG 1)	328	16.2	20.5			
GCAGGAUAAGUGAGGAUAUACCUAUGGAUACAUAGGUAGAAGGCACAUGAGGAUCACCCAUGUUACUCGCCUGC [Fiskers BMX 4 - 75] (puzzle: Brourd's mod of Exclusion 4)				41.7	12.9	10.9
GCAGGAUAAGUGAGGAUAUACCUCUGGAUACAGAGGUAGAAGGCACAUGAGGAUCACCCAUGUCAUUCACCUGC [Fiskers BMX 4 - 77] (puzzle: Brourd's mod of Exclusion 4)					14.4	
GCAGGUCAAGGAUAUACAUGAGGAUCACCCAUGUGAUUAGCAGUCCUCGGACUGCAAUGUAGAAGGUGACCUGC [E3/2-C2] (Eterna round: R97, puzzle: Exclusion 3)	2140		329			
GCAGUAACAUGAGGAUCACCCAUGUGGAACUCGUGAAUAAGCGAGGAUAUCUCAAGAUAUCAAAGAGAGAAGGCGUACACUGCA [Qulege] (Eterna round: R96, puzzle: Exclusion NG 3)	490	96.1	142			
GCAGUAUGAGUUAGGAUAUGAUGAUUUGAAAUGGGUCAGAAGGAACUUGAGGAUCACCCAAGUAAUGAAUUGGU [JR_BMEx4_Sub073] (Eterna round: R97, puzzle: Brourd's mod of Exclusion 4)	94.6		52.7			

From the supplement of paper PMC9170038
